Data on 8 molecules can be found in patent US20090252681A1 (Ablynx, published 2009).

By koff is commonly meant the first-order rate constant of dissociation.

In assay [1] the target is T1, purified EGFR (Sigma) (human, UniProt P00533 25-1210, limits assumed).
T1 construct: native receptor purified from A431 cells; also called solid phase coated EGFR

In assay [2] the target is T2, cell surface expressed EGFR (human, UniProt P00533 25-1210).
T2 construct: whole, on cells; also called EGFR on A431 tumor cells; EGFR on HER14 cells

Assay [3] deals with T3, EGFR on A431 derived membrane vesicles (human, UniProt P00533 25-1210).
T3 construct: whole, on cells; presented in membrane vesicles coated on ELISA plates, not on intact cells; also called EGFR harboring A431 vesicles; EGFR expressing A431 vesicles

The target in assay [4] is T4, Recombinant human IGF-IR (human, UniProt P08069 31-932).
T4 construct: bought; also called rhIGFIR; rhIGF-IR
Description: SPR (BIAcore), immobilized IGF-IR.

B1: PMP7A5 (VHH)
VHH: EVQLVESGGGLVQAGGSLRLSCAASDRTFSSNNMGWFRQAPGKEREFVAAIGWGGLETHYSDSVKGRFTISRDNAKNTVYLQMNSLKPEDTARYYCAVSSTRTVIYTLPRMYNYWGQGTQVTVSS
Take B1: the koff in assay [1] turned out to be 0.0015 s⁻¹.

B2: 27-1-H7 (VHH)
VHH: EVQLVESGGGLVQAGGSLRLSCAASGRGAWAWFRQAPGKEREFVGGLSWSADSTYYADSVKGRFTISRDNAKNTVFLQMTNLKADDTAVYYCAAHRRPFASVFTTTRMYDYWGPGTQVTVSS
On to B2, for which the koff in assay [1] came out at 0.0031 s⁻¹.

B3: PMP9C1 (VHH)
VHH: EVQLVESGGGLVQAGGSLRLSCAASGRTFSGFAMGWFRQAPGKEREFVAAISWSGGSLLYVDSVKGRFTISRDNAKNTVHLQMNSLKPGDTAVYYCAAMVGPPPRSLDYGLGNHYEYDYWGQGTQVTVSS
Take B3: the binding result in assay [2] and in assay [3] was “binds” each time.

B4: PMP8C7 (VHH)
VHH: QVKLEESGGGLVQAGGSLRLSCAASGRAFSSYVMGWFRQAPGKEREIVGAISWRGGSTYYADSVKGRFTISRDNAKNTVYLQMNSLKPEDTAVYYCAAVYRVGAISEYSGTDYYTDEYDYWGQGTQVTVSS
notes: also called EGR PMP8C7
Turning to B4, in assay [3], the binding result is listed as “binds”.

B5: 27-10-E8 (VHH)
VHH: EVQLVESGGGLVQAGGSLRLSCAASGRTFSTYTMAWFRQAPGKEREFVQGISRSDGGTYDADSVKGRFTISRDNAKNTVYLQMNSLKPEDTAVYFCAAASVKLVYVNPNRYSYWGQGTQVTVSS
notes: anti-EGFR Nanobody; tested as periplasmic extract or IMAC purified soluble Nanobody, tag not described; also called EGR 27-10-E8
Turning to B5, in assay [1], the koff amounted to 0.0017 s⁻¹. The “IC50 (read off the curve)” value in assay [3] was approximately 0.9 nM.

B6: PMP38G7 (VHH)
VHH: EVQLVESGGGLVQAGGSLRLSCAASGRTFSSYVMGWFRQATGKEREFVATIAWDSGSTYYADSVKGRFTISRDNAKNTVHLQMNSLKPEDTAVYYCAASYNVYYNNYYYPISRDEYDYWGQGTQVTVSS
notes: also called EGR PMP38G7
Molecule B6 showed a koff in assay [1] of 0.00017 s⁻¹.

B7: PMP7E12 (VHH)
VHH: EVQLVESGGGLVQAGGSLRLSCTASGRTFENNAMAWFRQAAGKEREFVAGFSGSGGATYYAHSVEGRFTISRDNAKNTVDLQMNSLSLEDTAVYLCAARRKSGEVVFTIPARYDYWGQGTQVTVSS
On to B7, for which, in assay [1], the dissociation rate constant (koff) was 0.0015 s⁻¹.

B8: PMP1C7 (VHH)
VHH: QVKLEESGGGLVQAGGSLRLSCVASGRTFSRTAMAWFRQAPGKEREFVATITWNSGTTRYADSVKGRFFISKDSAKNTIYLEMNSLEPEDTAVYYCAATAAAVITPTRGYYNYWGQGTQVTVSS
notes: anti-IGF-IR Nanobody; tag not described; also called IGR PMP1C7
As for B8, the off-rate constant (koff) in assay [4] is 0.0019 s⁻¹.
